Test results reported in patent publication US20180244758A1 (MAPP BIOPHARMACEUTICAL, published 2018).

Experiments:
[1] = target: T1, EBOV GP on rVSV particles (Ebola virus (EBOV), UniProt Q05320 33-676); experiment: cell-based or functional assay
T1 sequence: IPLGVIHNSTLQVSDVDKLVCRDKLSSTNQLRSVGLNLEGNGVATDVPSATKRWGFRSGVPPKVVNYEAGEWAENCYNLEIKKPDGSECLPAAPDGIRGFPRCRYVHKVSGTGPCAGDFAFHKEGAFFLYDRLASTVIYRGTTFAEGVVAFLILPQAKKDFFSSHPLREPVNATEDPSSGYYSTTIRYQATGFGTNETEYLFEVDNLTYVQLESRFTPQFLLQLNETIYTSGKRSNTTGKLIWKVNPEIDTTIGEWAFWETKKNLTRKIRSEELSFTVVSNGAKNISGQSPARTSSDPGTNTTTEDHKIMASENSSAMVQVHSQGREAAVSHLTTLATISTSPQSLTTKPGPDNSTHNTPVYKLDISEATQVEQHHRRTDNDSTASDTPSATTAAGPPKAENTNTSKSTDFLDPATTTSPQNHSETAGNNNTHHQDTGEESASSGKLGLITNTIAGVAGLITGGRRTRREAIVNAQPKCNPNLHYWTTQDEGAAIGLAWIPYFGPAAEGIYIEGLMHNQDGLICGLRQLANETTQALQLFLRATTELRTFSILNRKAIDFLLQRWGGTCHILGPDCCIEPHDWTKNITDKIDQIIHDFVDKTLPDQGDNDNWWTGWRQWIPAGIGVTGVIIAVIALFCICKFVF

[2] = target: BDBV GP on rVSV particles (Bundibugyo virus (BDBV)); experiment: cell-based or functional assay

B1: mAb PE-87 (antibody, V domains shown)
VH: QVQLVQSGVTLVQPGGSLRVSCAASGFTFSSYAMSWVRQAPGKGLEWVSAISGLGGSTYYADSVKGRFTISRDNSKNTLYLQMNSLRAEDTAVYYCAKDHRVWAAGYHFDYWGQGALVTVSS
VL: DIVLTQSPSTLSASVGDRVTITCRASQSISSWLAWYQQKPGEAPKLLISDASSLESGVPSRFSGSGSGTEFTLTISSLQPDDFATYYCQQYYSSPTFGGGTKVEIK
IC50 (nM), neutralization of rVSV-GP [1]: 1 nM | IC50 (nM), neutralization of rVSV-GP [2]: 0.4 nM
